The text below walks through data of patent US20160207973A1 (Pfizer, published 2016).

Positions count from the first letter of the chain named. In names and notes the source's numbering stands. Where two headings read alike, the source gives them in different places.

B1: ALK2 receptor-human-IgG1-Fc fusion protein (Fc fusion, UniProt Q04771 21-123, looked up)
chain: MEDEKPKVNPKLYMCVCEGLSCGNEDHCEGQQCFSSLSINDGFHVYQKGCFQVYEQGKMTCKTPPSPGQAVECCQGDWCNRNITAQLPTKGKSFPGTQNFHLE
notes: extracellular domain; also called ActRIa; ActRI; not shown: human IgG1 Fc
B2: ALK3 receptor-human-IgG1-Fc fusion protein (Fc fusion, UniProt P36894 24-152, looked up)
chain: QNLDSMLHGTGMKSDSDQKKSENGVTLAPEDTLPFLKCYCSGHCPDDAINNTCITNGHCFAIIEEDDQGETTLASGCMKYEGSDFQCKDSPKAQLRRTIECCRTNLCNQYLQPTLPPVVIGPFFDGSIR
notes: extracellular domain; See note of m11; also called BMPRIa; not shown: human IgG1 Fc
B3: wild type BMP2/6 heterodimer, P12643 283-396; P22004 375-513 (ligand)
chain 1: QAKHKQRKRLKSSCKRHPLYVDFSDVGWNDWIVAPPGYHAFYCHGECPFPLADHLNSTNHAIVQTLVNSVNSKIPKACCVPTELSAISMLYLDENEKVVLKNYQDMVVEGCGCR
chain 2: SASSRRRQQSRNRSTQSQDVARVSSASDYNSSELKTACRKHELYVSFQDLGWQDWIIAPKGYAANYCDGECSFPLNAHMNATNHAIVQTLVHLMNPEYVPKPCCAPTKLNAISVLYFDDNSNVILKKYRNMVVRACGCH
B4: wild type BMP2 homodimer (ligand)
chain: B3 chain 1
modifications: N-linked glycan at N56 (CHO-produced)
notes: also called BMP2WT; WT BMP2
B5: ALK6 receptor-human-IgG1-Fc fusion protein (Fc fusion, UniProt O00238 14-126, looked up)
chain: KKEDGESTAPTPRPKVLRCKCHHHCPEDSVNNICSTDGYCFTMIEEDDSGLPVVTSGCLGLEGSDFQCRDTPIPHQRRSIECCTERNECNKDLHPTLPPLKNRDFVDGPIHHR
notes: extracellular domain; See note of m11; also called BMPRIb; not shown: human IgG1 Fc
B6: BMPRII receptor-human-IgG1-Fc fusion protein (Fc fusion, UniProt Q13873 27-150, looked up)
chain: SQNQERLCAFKDPYQQDLGIGESRISHENGTILCSKGSTCYGLWEKSKGDINLVKQGCWSHIGDPQECHYEECVVTTTPPSIQNGTYRFCCCSTDLCNVNFTENFPPPDTTPLSPPHSFNRDET
notes: extracellular domain; See note of m11; also called BMPR IIA; BMPRIIA; not shown: human IgG1 Fc
B7: ActRIIB receptor-human-IgG1-Fc fusion protein (Fc fusion, UniProt Q13705 19-137, looked up)
chain: SGRGEAETRECIYYNANWELERTNQSGLERCEGEQDKRLHCYASWRNSSGTIELVKKGCWLDDFNCYDRQECVATEENPQVYFCCCEGNFCNERFTHLPEAGGPEVTYEPPPTAPTLLT
notes: extracellular domain; See note of m11; also called ATRIIB; not shown: human IgG1 Fc
B8: designer BMP-GER (ligand)
chain: QAKHKQRKRLKSSCKRHPLYVDFSDVGWNDWIIAPRGYAAFYCDGECSFPLNAHMNATNHAIVQTLVHLMNPEYVPKPCCAPTELNAISVLYFDDNSNVILKNYQDMVVEGCGCR
notes: also called BMPGE P36R
B9: designer BMP-E-NR (ligand)
chain: QAKHKQRKRLKSSCKRHPLYVDFSDVGWNDWIVAPPGYHAFYCDGECSFPLNAHMNATNHAIVQTLVHLMNPEYVPKPCCAPTKLRPMSMLYYDDGQNIIKKDIQNMIVEECGCS
B10: designer BMP-GER-NR (ligand)
chain: B9 chain with V33I, P36R, H39A
B11: Noggin (other, UniProt Q13253 28-232, looked up)
chain: QHYLHIRPAPSDNLPLVDLIEHPDPIFDPKEKDLNETLLRSLLGGHYDPGFMATSPPEDRPGGGGGAAGGAEDLAELDQLLRQRPSGAMPSEIKGLEFSEGLAQGKKQRLSKKLRRKLQMWLWSQTFCPVLYAWNDLGSRFWPRYVKVGSCFSKRSCSVPEGMVCKPSKSVHLTVLRWRCQRRGGQRCGWIPIQYPIISECKCSC

The target in assay [1] is T1, wild type BMP6 homodimer (Homo sapiens (Human), UniProt P22004 375-513, N-linked glycan at N80 (CHO-produced)).
T1 construct: Produced in CHO cells; also called WT BMP6; BMP6/6
T1 sequence: B3 chain 2
Put plainly: BLI (Octet), receptor-Fc on anti-human IgG tips; Table 13: weak binding, 700 nM. How it is done: (§1) The Octet QK analysis was performed at […] in TBS with 0.1% Tween-20. Samples were agitated at 1000 rpm. […] Each BMP was prepared as a sevenfold serial dilution (typically 200-3 nM in singlicate) plus buffer blanks. Each Receptor/BMP binding pair was run at least in duplicate. Association was monitored for 10 min and dissociation was followed for […] into buffer alone. Kinetic parameters (kon and koff) and affinities (KD) were calculated using the Octet Data Analysis software 6.0 using a partial binding 1:1 model following manufacturer's instructions.

Assay [2] addresses T1, wild type BMP6 homodimer. Description: BLI (Octet), receptor-Fc on anti-human IgG tips. How it is done:
as §1

The target of assay [3] is T1, wild type BMP6 homodimer. Put plainly: BLI (Octet), receptor-Fc on anti-human IgG tips. The method, then: as §1
The source holds these as a separate data set.

The target in assay [4] is T2, ALK2 receptor-human-IgG1-Fc fusion protein (human), Q04771.
T2 chain: B1 chain
Put plainly: BLI (Octet), receptor-Fc on anti-human IgG tips. As to conditions: remark: other sources report otherwise.

The target of assay [5] is B6. Put plainly: BLI (Octet), receptor-Fc on anti-human IgG tips. How it is done: as §1
In assay [6] the target is B6. Put plainly: BLI (Octet), receptor-Fc on anti-human IgG tips. The method, then:
as §1
This is another data set of the same source.

Assay [7] addresses B4. Description: BLI (Octet), receptor-Fc on anti-human IgG tips. How it is done:
as §1

The target in assay [8] is T3, wild type BMP2/6 heterodimer (human, UniProt P12643 283-396; P22004 375-513). Description: BLI (Octet), receptor-Fc on anti-human IgG tips. The method, then: as §1
For assay [9], the target named is B4. Description: BLI (Octet), receptor-Fc on anti-human IgG tips. The method, then:
as §1
The source holds these as a separate data set.

Assay [10] has as its target T3, wild type BMP2/6 heterodimer. Put plainly: BLI (Octet), receptor-Fc on anti-human IgG tips. The method, then:
as §1
This is another data set of the same source.

The target of assay [11] is B7. Description: ActRIIb affinity; method not given.
Assay [12] deals with B11. Put plainly: Noggin affinity; method and unit not stated.
Assay [13] concerns the target B1. Description: BLI (Octet), receptor-Fc on anti-human IgG tips. The method, then: as §1
Assay [14] concerns the target B2. Description: BLI (Octet), receptor-Fc on anti-human IgG tips. The method, then: as §1
The target of assay [15] is B5. Put plainly: BLI (Octet), receptor-Fc on anti-human IgG tips. How it is done: as §1
Assay [16] addresses T4, ActRIIA receptor-human-IgG1-Fc fusion protein (human, UniProt P27037 20-135, limits assumed).
T4 construct: extracellular domain; See note of m11; not shown: human IgG1 Fc
Put plainly: BLI (Octet), receptor-Fc on anti-human IgG tips. The method, then: as §1

In assay [17] the target is B7. Description: BLI (Octet), receptor-Fc on anti-human IgG tips. The method, then:
as §1

Assay [18] addresses T5, designer BMPE (N-linked glycan at N56 (CHO-produced)).
T5 chain: B8 chain with I33V, R36P, A39H, N86S, V90M, F93L, D95E, S97E, N98K, I100V
Description: cell-based or functional assay.

The target in assay [19] is B8. Description: cell-based or functional assay.

T4 sequence (P27037 20-135 limits assumed): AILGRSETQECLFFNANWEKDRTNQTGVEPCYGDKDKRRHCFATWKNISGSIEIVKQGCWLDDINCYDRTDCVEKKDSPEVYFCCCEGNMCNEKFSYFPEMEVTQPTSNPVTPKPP

For B1, the Kd in assay [1] worked out at 700 nM. This counts as sub-micromolar.

Consider B2, for which the dissociation constant Kd in assay [2] and in [3] was 11 nM throughout.

In turn, B3 had a Kd in [4] of 250 nM.

Regarding B4, the dissociation constant Kd in assay [5] and in [6] was 62 nM each time.

Take B5: the Kd in [7] is 1 nM; in assay [2], 20 nM; in [8] it was 0.5 nM; in assay [9], 1 nM; in assay [3], 20 nM; in assay [10] it was 0.5 nM.

For the molecule B6, the Kd in [2] is 4 nM; in assay [8] it was 3 nM; in assay [3], 4 nM; in [10], 3 nM.

Regarding B7, the Kd in assay [2] is 0.5 nM; in assay [8] it was 1 nM; in assay [3], 0.5 nM; in assay [10], 1 nM.

For B8, the Kd was found to be 2 nM in assay [11]; 2 nM in assay [13]; 2 nM in assay [14]; 1 nM in [15]; 2 nM in assay [16]; 0.5 nM in [17]. The molecule also returned a Kd in assay [6] of 3.5 nM. For the same molecule, the “Noggin Affinity” value in assay [12] was 4.

In assay [11], B9 displayed a Kd of 0.5 nM. Besides, the “Noggin Affinity” value in [12] came to 6.

For the molecule B10, in assay [11], the Kd came to 0.07 nM. Further, the “Noggin Affinity” value in [12] is 7.5.

Turning to B11, the “IC50 (read off the curve)” value in assay [18] is about 0.09 µg/mL; in [19], about 0.04 µg/mL.
